# Legend:
# Experiment in all cases: single-molecule FRET
# Settings in all cases: 5' m7GpppAm cap named for viral RNA; 3' poly(A) of unstated length
# [1] = test system: Cy5-eIF4E(S209D) (Homo sapiens)
# [2] = molecular target: Cy5-eIF4E;eIF4G(557-1137);eIF4A (Homo sapiens;Homo sapiens;Homo sapiens) (UniProt Q04637)
# Cy5-eIF4E (Homo sapiens) = test system: Cy5-eIF4E (Homo sapiens)
# [3] = molecular target: Cy5-eIF4E(S209D);eIF4G(557-1137);eIF4A (Homo sapiens;Homo sapiens;Homo sapiens) (UniProt Q04637)
substance,measurement,setting,value
capped polyadenylated SARS-CoV-2 5' UTR,Kd,[1],62 nM
same,Kd,[2],127 nM
same,Kd,Cy5-eIF4E (Homo sapiens),74 nM
same,Kd,[3],78 nM
